# In patent publication US20110236411A1:
# Target: purified folded MHC-complex (Example 34, allele and peptide not stated)
# Assay: sandwich ELISA, W6/32 coated, HRP rabbit anti-β2m detection
substance,measurement,value
W6/32 mouse-anti-HLA-ABC antibody (Dako M0736),fold of OD450 against the negative control β2m,> 6 fold
